Results from the supplement of paper PMC12667976.

B1: library; numbered along this chain (parent)
chain: MATDAALRRLLRLHRTEIAVAVDSAFPLLHALADHDVVPEDKFQETLHLKEKEGCPQAFHALLSWLLTQDSTAILDFWRVLFKDYNLERYGRLQPILDSFPKDVDLSQPRKGRKPPAVPKALVPPPRLPTKRKASEEARAAAPAALTPRGTASPGSQLKAKPPKKPESSAEQQRLPLGNGIQTMSASVQRAVAMSSGDVPGARGAVEGILIQQVFESGGSKKCIQVGGEFYTPSKFEDSGSGKNKARSSSGPKPLVRAKGAQGAAPGGGEARLGQQGSVPAPLALPSDPQLHQKNEDECAVCRDGGELICCDGCPRAFHLACLSPPLREIPSGTWRCSSCLQATVQEVQPRAEEPRPQEPPVETPLPPGLRSAGEEVRGPPGEPLAGMDTTLVYKHLPAPPSAAPLPGLDSSALHPLLCVGPEGQQNLAPGARCGVCGDGTDVLRCTHCAAAFHWRCHFPAGTSRPGTGLRCRSCSGDVTPAPVEGVLAPSPARLAPGPAKDDTASHEPALHRDDLESLLSEHTFDGILQWAIQSMARPAAPFPS

Variants of: B1
Assay: AIRE transcriptional activation functional score (insulin promoter-GFP; nonsense median 0, synonymous median 1) (normalised score); higher = higher AIRE activity (more reporter activation)
Details: with insulin promoter-GFP reporter in HEK293
Method in brief: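 Codon-optimized AIRE NNN-codon libraries (three regions) were integrated by Bxb1 recombinase into Flp-In T-REx HEK293 landing-pad cells carrying an insulin core promoter-GFP reporter. Integrants (mCherry+, BFP−) sorted at day 7 were expanded 7 days; top 10% GFP and unselected integrant populations were tile-sequenced. Functional score is select versus non-select variant enrichment, wild-type subtracted. Variants needed 10 counts per million in non-select; scores were rescaled to nonsense median 0 and synonymous median 1, then averaged over biological replicates.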

AIRE transcriptional activation functional score, by site and new letter:
H523: N 1.28, R -0.128, W -0.242, D 0.678, Q 0.954, G 1.65, K 0.199, C -0.042, T 1.37, F 0.43, S 1.25, V 0.847, I 0.286, L 0.222, Y 1.33
T524: W 0.629, L -0.065, S 1.61, I 0.0345, Y 1.4, H -0.0688, Q 0.0994, F 0.0783, A 0.636, M -0.346, K 0.256, G 0.619, V 0.353, P 0.528, R 0.214, C 1.47
D515: Y 0.405, R -0.0862, E 1.18, Q 0.723, W -0.15, S 0.474, N 0.626, F 0.156, A -0.0405, P 0.67, L -0.215, V 0.106, M -0.0216, I 0.101, K -0.501, H 0.453, T 0.0981, C 0.503, G 0.421
D514: N 0.242, H 0.52, C 0.246, W -0.252, I -0.186, T 0.26, M 0.515, F 0.299, V 0.335, P -0.178, R 0.191, L 0.0834, E 0.931, G 0.3, Y 0.351, S 0.341, A 0.214, Q -0.128, K -0.0487
H512: G 0.716, P 1.09, T 0.649, S 0.923, I 1.1, A 0.977, F 1.21, K 0.572, V 1.35, W 1.06, Q 0.273, R 0.445, M 0.439, D 0.939, Y 0.777, C -0.3, L 0.941, N 1.02
E517: S -0.144, D 1.25, K -0.0484, L 0.0571, A -0.0659, Y 0.524, G 0.693, R 0.985, I 0.0464, H 0.164, Q 0.0484, V 0.207
I528: R 0.161, N 0.204, P 0.0858, F 0.795, Q 0.209, Y 0.65, T 0.117, D 0.302, G 0.149, E 0.137, H -0.237, K -0.0103, M 0.456, W 1, V 0.759, L 0.543, C 0.179, A 0.0102, S -0.0342
E508: R 0.154, P 0.813, Q 1.03, V 0.577, T 0.822, S 0.0376, W 0.888, Y 0.92
S518: A 0.775, V 1.12, K 1.27, Y 1.3, G 0.666, L 1.04, Q 1.77, C 0.672, I 0.907, F 1.2, H 0.981, P 0.384, R 0.342, N 0.216, W 0.848, T 1.51
L511: C 0.201, T 0.121, K -0.311, W 1.02, Y 1.19, F 0.864, P 0.736, Q 0.142, G 0.805, S 0.682, M 0.699, A 0.757, V 0.838, I 0.739, R 0.813, H 0.98
F525: V 0.609, D 0.0868, N -0.231, H -0.0452, P 0.141, E -1.43, Q -0.479, S -0.595, T -0.259, G 0.0436, A 0.406, I 0.367, C 0.0978, L 0.45, R -0.845, Y 0.369
S521: M 0.76, L 0.969, R 0.245, Q 0.377, F 0.695, T 1.08, W 0.299, K -0.211, V 0.258, A 0.824, G 0.548, C 0.241, I 0.551, N 0.923
G527: V 0.0961, W 0.875, R 0.305, M 0.725, H 0.494, S 0.639, F -0.224, N 0.999, L 0.0948, K 0.173, C 0.656, I 1.02, A 0.391
L516: E -0.232, T 0.362, S 0.564, G 0.562, I 0.97, F 1.48, H 0.715, D 0.758, C 0.678, Q 0.292, P 0.365, R 0.262, V 0.832, A 0.556, N 0.207, W 0.496, Y 1.01, K 0.259
P509: I 1.21, K 0.522, S 1.16, C 0.247, A 0.736, T 0.871, W 0.591, G 1.11, M 1.65, V 1.14, R 0.805, Y 1.11, Q 1.12, N 0.827, L 0.827, H 0.506, E 1.16, F 1.17
A510: Q 0.851, P 1.35, V 1.09, L 1.04, K 0.165, R 0.323, E 1.33, I -0.237, Y 0.861, H 0.605, W 0.663, T 0.933, S 0.921, M 1.37, G 0.977, F 0.578, C 1.24
E522: F 0.252, K 0.503, T -0.656, V 0.236, G 0.352, D 0.925, Q 1.03, A -0.0825, L -0.299, C 0.0951, W -1.23, R -0.0906, I 0.133, S 0.0236
L520: C 0.467, P -0.00959, T 0.23, E 0.103, A 0.276, R 0.181, H 0.344, K 0.452, I 1.23, S -0.11, V 0.478, Q 0.36, F 0.794, G 0.375, D 0.849
L519: M 0.992, I 0.439, A 0.739, N -0.347, Q 0.698, P 0.517, E 0.874, T 0.239, V 0.315, S 0.255, H -0.138, D 0.255, C 0.313, Y 1.11, W 0.904, R 0.267, G 0.259, F 0.808
D526: V -0.011, F 0.421, K 0.177, I 0.298, S -0.0693, C -0.576, L -0.764, T -0.207, A 0.225, G 0.346, R -0.505, P -0.403, N 0.21, E 0.925, Y 1.02, W -0.427
R513: F 1.18, L 0.882, P 0.55, I 1.44, Y 1.28, D 0.928, E -0.344, C 0.777, K 0.902, H 0.0273, S 0.587, T 1.17, M 1.01, V 0.873, G -0.188, W 0.733, N 0.0982
